{
  "source": "paper PMC13193388",
  "about": "“Dimerization‐dependent NOTCH receptor transactivation unveils a class of highly selective NOTCH signalling inhibitors” (The Febs Journal, 2025)",
  "binders": {"B1": {"name": "N34 peptide (peptide)", "peptide": "EKYCADHFADGR", "notes": "NOTCH3, human, peptide centred on the helix encompassing the core dimerization motif of the NRR; also called N3 peptide"}},
  "target": "T1, purified recombinant HIS epitope-tagged NOTCH3 extracellular domain (human, UniProt Q9UM47 40-1643, glycosylated)",
  "T1 construct": "NOTCH3, human, complete extracellular domain; written as one chain so that the self-association rows stand for chain with chain; also called N3 ECD; NOTCH3-ECD protein; source: PEC.3.30 (modified Per.E2A) cells, purified from supernatant (HisTrap HP, Superdex 200); not shown: HIS, C-terminal, kept",
  "T1 sequence (Q9UM47 40-1643)": "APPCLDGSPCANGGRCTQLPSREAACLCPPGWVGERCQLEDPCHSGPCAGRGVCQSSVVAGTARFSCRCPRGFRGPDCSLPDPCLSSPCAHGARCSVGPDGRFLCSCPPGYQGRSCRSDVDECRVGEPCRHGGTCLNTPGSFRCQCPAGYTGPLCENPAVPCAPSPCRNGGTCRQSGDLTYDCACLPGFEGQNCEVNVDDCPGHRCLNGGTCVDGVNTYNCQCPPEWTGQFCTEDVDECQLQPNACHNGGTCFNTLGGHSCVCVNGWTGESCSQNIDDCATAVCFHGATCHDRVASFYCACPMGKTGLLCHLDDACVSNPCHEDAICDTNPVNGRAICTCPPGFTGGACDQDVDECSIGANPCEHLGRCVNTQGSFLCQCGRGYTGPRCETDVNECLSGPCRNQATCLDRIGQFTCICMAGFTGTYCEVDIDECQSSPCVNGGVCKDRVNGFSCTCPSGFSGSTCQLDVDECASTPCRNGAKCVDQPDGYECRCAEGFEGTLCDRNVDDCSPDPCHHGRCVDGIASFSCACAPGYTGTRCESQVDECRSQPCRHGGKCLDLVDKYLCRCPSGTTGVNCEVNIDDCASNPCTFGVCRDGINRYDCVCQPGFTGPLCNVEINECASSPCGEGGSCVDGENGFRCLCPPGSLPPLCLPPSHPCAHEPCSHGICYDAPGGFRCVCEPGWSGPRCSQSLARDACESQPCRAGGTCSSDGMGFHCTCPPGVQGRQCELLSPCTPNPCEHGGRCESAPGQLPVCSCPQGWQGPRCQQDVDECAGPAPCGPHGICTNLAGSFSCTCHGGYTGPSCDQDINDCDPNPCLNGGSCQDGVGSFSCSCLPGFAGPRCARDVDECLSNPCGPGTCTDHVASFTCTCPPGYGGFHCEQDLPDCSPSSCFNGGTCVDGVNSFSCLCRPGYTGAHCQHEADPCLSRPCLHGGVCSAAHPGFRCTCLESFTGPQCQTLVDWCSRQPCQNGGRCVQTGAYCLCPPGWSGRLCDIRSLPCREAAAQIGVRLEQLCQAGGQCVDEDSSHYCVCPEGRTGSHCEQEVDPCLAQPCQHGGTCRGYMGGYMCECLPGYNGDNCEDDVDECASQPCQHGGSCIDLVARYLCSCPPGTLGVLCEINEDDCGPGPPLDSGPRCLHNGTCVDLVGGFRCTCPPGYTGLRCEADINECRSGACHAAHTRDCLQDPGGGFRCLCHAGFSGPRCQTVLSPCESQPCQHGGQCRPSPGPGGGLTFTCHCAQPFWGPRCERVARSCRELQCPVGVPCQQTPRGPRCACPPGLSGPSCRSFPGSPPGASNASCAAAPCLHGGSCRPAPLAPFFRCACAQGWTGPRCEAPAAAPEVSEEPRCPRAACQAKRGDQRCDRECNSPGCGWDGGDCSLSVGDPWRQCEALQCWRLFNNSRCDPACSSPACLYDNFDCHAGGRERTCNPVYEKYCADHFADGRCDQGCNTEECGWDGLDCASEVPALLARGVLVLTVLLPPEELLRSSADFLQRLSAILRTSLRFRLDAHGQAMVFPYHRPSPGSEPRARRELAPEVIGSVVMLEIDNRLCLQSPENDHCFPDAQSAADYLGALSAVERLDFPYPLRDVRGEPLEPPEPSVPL",
  "test": "SPR; Biacore T200; NOTCH3-ECD immobilized on NTA Series S chip by nickel-NTA capture-coupling (about 3500 RU); peptides flowed at 30 μL/min; 50 mM HEPES, 150 mM NaCl, 25 °C; steady-state affinity model",
  "settings": "both partners purified",
  "data": [
    {"binder": "B1", "values": [
      {"measurement": "binding result", "value": "binds"}
    ]}
  ]
}
